Consider 4 molecules from publication PMC9337824.

Test [1] deals with CD23 on SKW6.4 B lymphoma cells (human (endogenous in SKW6.4)) (UniProt P06734). Put plainly: flow cytometry on cells; Alexa Fluor 647-conjugated UB-221, ligelizumab (UBP lot) or omalizumab at 0 to 10 μg/mL mixed with an equal volume of 15 μg/mL human IgE in PBS, 1 hour at room temperature; added to CD23^+ SKW6.4 cells for 30 minutes at 4°C. Background: A flow cytometer gives signals particle by particle.

In a further test the target is Ligelizumab. Put plainly: SPR; IgG Fc antibodies covalently coupled to the sensor chip captured the anti-IgE mAbs (ligelizumab: Creative Biolabs, TAB755); Expi293-expressed human full-length IgE injected at 0.312–50 nM. (In general: In SPR one partner is held on a chip, and binding of the other changes the refractive index at the surface.)
The next test deals with Omalizumab. The description is as above.
Test [2] has as its target IgE in sera of patients with atopic dermatitis (human (endogenous in patients' sera)). Put plainly: ELISA; sera of AD patients with high basal IgE (>24,000 ng/mL, n = 10) incubated 1 hour at room temperature with mAb at 0–75,000 ng/mL; remaining free IgE measured on plates coated with FcεRIα-Fcγ.
For test [3] the target is unchanged. Put plainly: ELISA; sera of AD patients with low basal IgE (<4,800 ng/mL, n = 9) incubated 1 hour at room temperature with mAb at 0–4,000 ng/mL (ligelizumab: Creative Biolabs TAB-755); remaining free IgE measured on plates coated with FcεRIα-Fcγ. (In general: In an ELISA, binding on a coated surface is turned into a signal by an enzyme label.)
In test [4] the target is CD23-bound IgE on SKW6.4 cells (human | human (endogenous in SKW6.4)) (UniProt P01854). Put plainly: flow cytometry on cells; CD23^+ SKW6.4 cells with 15 μg/mL human IgE for 30 minutes at 4°C, washed, then UB-221, ligelizumab (UBP lot) or omalizumab at 0–10 μg/mL in PBS for 30 minutes at 4°C; Brilliant Violet 421 anti-human IgG Fc.

Sequence of IgE in sera of patients with atopic dermatitis (human (endogenous in patients' sera)) (P01854 whole entry): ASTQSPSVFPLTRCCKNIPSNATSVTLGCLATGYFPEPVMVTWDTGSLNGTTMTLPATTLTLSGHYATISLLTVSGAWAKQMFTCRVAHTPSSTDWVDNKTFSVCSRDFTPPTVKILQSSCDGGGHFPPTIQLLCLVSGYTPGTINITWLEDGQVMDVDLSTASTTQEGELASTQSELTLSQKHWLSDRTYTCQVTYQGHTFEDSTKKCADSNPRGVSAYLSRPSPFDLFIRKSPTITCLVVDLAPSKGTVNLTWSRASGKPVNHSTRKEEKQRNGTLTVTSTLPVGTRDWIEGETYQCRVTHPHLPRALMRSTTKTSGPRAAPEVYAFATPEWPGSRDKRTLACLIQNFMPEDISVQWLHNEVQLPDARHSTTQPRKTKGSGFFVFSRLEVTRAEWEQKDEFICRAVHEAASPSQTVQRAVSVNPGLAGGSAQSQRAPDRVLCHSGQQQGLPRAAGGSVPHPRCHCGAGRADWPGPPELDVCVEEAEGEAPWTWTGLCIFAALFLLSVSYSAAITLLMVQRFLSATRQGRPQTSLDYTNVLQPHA
Sequence of UniProt P06734 (P06734 whole entry): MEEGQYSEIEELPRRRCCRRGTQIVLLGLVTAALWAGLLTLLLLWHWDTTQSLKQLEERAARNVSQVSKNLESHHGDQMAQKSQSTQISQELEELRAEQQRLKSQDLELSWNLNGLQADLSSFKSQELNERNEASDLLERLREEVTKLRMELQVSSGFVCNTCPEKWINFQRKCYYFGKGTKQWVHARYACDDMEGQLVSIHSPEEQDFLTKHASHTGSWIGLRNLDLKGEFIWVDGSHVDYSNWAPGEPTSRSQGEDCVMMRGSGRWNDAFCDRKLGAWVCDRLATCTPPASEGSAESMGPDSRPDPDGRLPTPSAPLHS

Turning to “Preformed UB-221–IgE complex (from UniProt P01854 1-546)”, the maximum binding MFI in test [1] is 1280 MFI. With “Preformed ligelizumab-IgE complex (from UniProt P01854 1-546)”, the maximum binding MFI in test [1] was 191 MFI.

In general, Kd refers to the concentration at which binding is half-saturated. As to “Expi293-expressed human full-length IgE (from UniProt P01854 1-546) (natural protein)”, the results for the Kd with Ligelizumab and with Omalizumab were 16 pM and 230 pM, respectively.

B1: Ligelizumab (antibody, V domains shown)
VH: QVQLVQSGAEVMKPGSSVKVSCKASGYTFSWYWLEWVRQAPGHGLEWMGEIDPGTFTTNYNEKFKARVTFTADTSTSTAYMELSSLRSEDTAVYYCARFSHFSGSNYDYFDYWGQGTLVTVSS
VL: EIVMTQSPATLSVSPGERATLSCRASQSIGTNIHWYQQKPGQAPRLLIYYASESISGIPARFSGSGSGTEFTLTISSLQSEDFAVYYCQQSWSWPTTFGGGTKVEIK
One may read the EC90 as the concentration at which the effect reaches the 90% level. With B1, the EC90 in test [2] is greater than 25 µg/mL; in test [3], 1 µg/mL. Moreover, the maximum binding MFI in test [4] stood at 503 MFI.
